Experimental data taken from the supplement of paper PMC9170038.

Tested on: MS2 coat protein
Experiment: apparent KD of MS2 coat protein; higher = weaker reporter binding
Conditions: Eterna round: R107; input ligand: arginine 13.2 mM
Method: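 RNA-MaP round R107: designed RNA switches with theophylline, tryptophan, arginine or FMN aptamers are transcribed on-chip within common flanks. They are titrated with SNAP-549-labelled MS2 coat protein in RNA-MaP buffer (100 mM Tris pH 7.5, 80 mM KCl, 4 mM MgCl2), without ligand or with the indicated ligand. Median apparent KD per design.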

In order of falling “apparent KD of MS2 coat protein” value:
1. CUUGUUUAUGGAAGGAGCGCGAUUACAUAACAUGAGGAUCACCCAUGUAAGAAAUUAUUCAUGCAGGUAGGUCGCCAUGGGUGGG [Same State Arginine B GF7]  111 nM
2. UAAACAUGAGGAUCACCCAUGUUGGAUGAAGGAGCGACCAGAGGGUCAGGUAGGUCGCAUCACAUGAGGAUCACCCAUGUCAUUU [DOUBLE!!! :-D #12]  59.1 nM
3. AGAGCAUUGACGGCCGCCACUCAUGUCACAUGAGGAUCACCCAUGUGAUGGGUGAUCGCCCGGUUGAGGACCGGGUCAAUGCUCA [Omei Tryp SS B v2]  42.9 nM
4. AUGUCGUUGAAUACAGCGGCAUGGAGUGAUACCAGAAUGAUCAAAUUCCCUUGGCAGCAUCACAUGAGGAUCACCCAUGUUCGAU [SSTheo A #16]  22.2 nM
5. ACCUGUACGAAAAGUGCAGGACACGGAAUACGAGGACCGGUACGGCCGCCACUCGGAAAACCUGAGGAUCACCCUGGUAACCGUG [TrypAS 11 #AlternativeMS2 #Zipper #StaticStem]  21.6 nM
6. AGAUUACAUGUUUUAAUACGGAAAACUGAUACCAGUGUAUCUAUUCACCCUUGGCAGCAGCAACAUGAGGAUCACCCAUGUAUUA [JR_SSTheophyA_Sub016]  17.9 nM
7. GCAUCCUAGUCGGCCGCCACUGGUACGAACACCUUCACCCGUGUGCACAUGAGGAUCACCCAUGUCAGGACCGGGACUAGGAUGC [SSTryp B #22]  9.48 nM

Same assay, conditions: Eterna round: R107; input ligand: none

In order of falling “apparent KD of MS2 coat protein” value:
1. ACUCGAGGUGGAAGGAGCGGGAGACAUGAGCAUCACAUGAGGAUCACCCAUGUAGGAUCAUCCCAGGUAGGUCGCCAUGUCGAAA [avtamullin]  217 nM
2. CUUGUUUAUGGAAGGAGCGCGAUUACAUAACAUGAGGAUCACCCAUGUAAGAAAUUAUUCAUGCAGGUAGGUCGCCAUGGGUGGG [Same State Arginine B GF7]  195 nM
3. UAAACAUGAGGAUCACCCAUGUUGGAUGAAGGAGCGACCAGAGGGUCAGGUAGGUCGCAUCACAUGAGGAUCACCCAUGUCAUUU [DOUBLE!!! :-D #12]  108 nM
4. UUGUAUAUGCGAAGGAGCGGGAAAUAUAUAUAUAUAAUCCUAACAUGAGGAUCACCCAUGUCCCAGGUAGGUCGCGCAUAUAUGG [12.F]  69.5 nM
5. GGGCCCGGGCGCGAGCCCGGGCCCAUUGAUACCAGUGAUAUAUAGCGCCCUUGGCAGCGAAUCCUAACAUGAGGAUCACCCAUGU [5.I]  38.8 nM
6. GGAUAUGGUGAAAGAGAGAAGAGAGAUGAUACCAGUAAGAGAAGAUGCCCUUGGCAGCAUAGAGACAUGAGGAUCACCCAUGUAA [solution]  22.9 nM
7. ACCUGUACGAAAAGUGCAGGACACGGAAUACGAGGACCGGUACGGCCGCCACUCGGAAAACCUGAGGAUCACCCUGGUAACCGUG [TrypAS 11 #AlternativeMS2 #Zipper #StaticStem]  16.3 nM

Same assay, conditions: Eterna round: R107; input ligand: theophylline 20 uM

In order of rising “apparent KD of MS2 coat protein” value:
1. GCAUCCUAGUCGGCCGCCACUGGUACGAACACCUUCACCCGUGUGCACAUGAGGAUCACCCAUGUCAGGACCGGGACUAGGAUGC [SSTryp B #22]  10.9 nM
2. CUCAUCCACGCGGCCGCCACUAUAUUGUGGUGCGUAUGUGUCGUAAUACAUGAGGAUCACCCAUGUAGGACCGGGCGUGGAUGAG [#10 Exclusion Tryptophan B]  14.3 nM
3. AUACCUAAUGAGUCGUGUAACUUUUCAGAUACCAGACUUUUCGUUGUCCCUUGGCAGCUGUUUUACAUGAGGAUCACCCAUGUUG [JR_ExcTheophyA_Sub008]  18.5 nM
4. AGAUUACAUGUUUUAAUACGGAAAACUGAUACCAGUGUAUCUAUUCACCCUUGGCAGCAGCAACAUGAGGAUCACCCAUGUAUUA [JR_SSTheophyA_Sub016]  21.5 nM
5. ACCUGUACGAAAAGUGCAGGACACGGAAUACGAGGACCGGUACGGCCGCCACUCGGAAAACCUGAGGAUCACCCUGGUAACCGUG [TrypAS 11 #AlternativeMS2 #Zipper #StaticStem]  22.3 nM
6. GGAUAUGGUGAAAGAGAGAAGAGAGAUGAUACCAGUAAGAGAAGAUGCCCUUGGCAGCAUAGAGACAUGAGGAUCACCCAUGUAA [solution]  25.2 nM
7. AUGUCGUUGAAUACAGCGGCAUGGAGUGAUACCAGAAUGAUCAAAUUCCCUUGGCAGCAUCACAUGAGGAUCACCCAUGUUCGAU [SSTheo A #16]  33.2 nM
8. GGGCCCGGGCGCGAGCCCGGGCCCAUUGAUACCAGUGAUAUAUAGCGCCCUUGGCAGCGAAUCCUAACAUGAGGAUCACCCAUGU [5.I]  65.2 nM
9. UUGUAUAUGCGAAGGAGCGGGAAAUAUAUAUAUAUAAUCCUAACAUGAGGAUCACCCAUGUCCCAGGUAGGUCGCGCAUAUAUGG [12.F]  80.7 nM
10. CUUGUUUAUGGAAGGAGCGCGAUUACAUAACAUGAGGAUCACCCAUGUAAGAAAUUAUUCAUGCAGGUAGGUCGCCAUGGGUGGG [Same State Arginine B GF7]  105 nM
11. UAAACAUGAGGAUCACCCAUGUUGGAUGAAGGAGCGACCAGAGGGUCAGGUAGGUCGCAUCACAUGAGGAUCACCCAUGUCAUUU [DOUBLE!!! :-D #12]  114 nM
12. AGAGCAUUGACGGCCGCCACUCAUGUCACAUGAGGAUCACCCAUGUGAUGGGUGAUCGCCCGGUUGAGGACCGGGUCAAUGCUCA [Omei Tryp SS B v2]  123 nM
13. ACUCGAGGUGGAAGGAGCGGGAGACAUGAGCAUCACAUGAGGAUCACCCAUGUAGGAUCAUCCCAGGUAGGUCGCCAUGUCGAAA [avtamullin]  147 nM

Same assay, conditions: Eterna round: R107; input ligand: theophylline 2 mM

In order of falling “apparent KD of MS2 coat protein” value:
1. ACUCGAGGUGGAAGGAGCGGGAGACAUGAGCAUCACAUGAGGAUCACCCAUGUAGGAUCAUCCCAGGUAGGUCGCCAUGUCGAAA [avtamullin]  276 nM
2. CUUGUUUAUGGAAGGAGCGCGAUUACAUAACAUGAGGAUCACCCAUGUAAGAAAUUAUUCAUGCAGGUAGGUCGCCAUGGGUGGG [Same State Arginine B GF7]  258 nM
3. UAAACAUGAGGAUCACCCAUGUUGGAUGAAGGAGCGACCAGAGGGUCAGGUAGGUCGCAUCACAUGAGGAUCACCCAUGUCAUUU [DOUBLE!!! :-D #12]  147 nM
4. AGAGCAUUGACGGCCGCCACUCAUGUCACAUGAGGAUCACCCAUGUGAUGGGUGAUCGCCCGGUUGAGGACCGGGUCAAUGCUCA [Omei Tryp SS B v2]  121 nM
5. UUGUAUAUGCGAAGGAGCGGGAAAUAUAUAUAUAUAAUCCUAACAUGAGGAUCACCCAUGUCCCAGGUAGGUCGCGCAUAUAUGG [12.F]  87.9 nM
6. GGGCCCGGGCGCGAGCCCGGGCCCAUUGAUACCAGUGAUAUAUAGCGCCCUUGGCAGCGAAUCCUAACAUGAGGAUCACCCAUGU [5.I]  53.2 nM
7. ACCUGUACGAAAAGUGCAGGACACGGAAUACGAGGACCGGUACGGCCGCCACUCGGAAAACCUGAGGAUCACCCUGGUAACCGUG [TrypAS 11 #AlternativeMS2 #Zipper #StaticStem]  25 nM
8. GGAUAUGGUGAAAGAGAGAAGAGAGAUGAUACCAGUAAGAGAAGAUGCCCUUGGCAGCAUAGAGACAUGAGGAUCACCCAUGUAA [solution]  24.3 nM
9. CUCAUCCACGCGGCCGCCACUAUAUUGUGGUGCGUAUGUGUCGUAAUACAUGAGGAUCACCCAUGUAGGACCGGGCGUGGAUGAG [#10 Exclusion Tryptophan B]  11.6 nM
10. GCAUCCUAGUCGGCCGCCACUGGUACGAACACCUUCACCCGUGUGCACAUGAGGAUCACCCAUGUCAGGACCGGGACUAGGAUGC [SSTryp B #22]  8.54 nM

Same assay, conditions: Eterna round: R107; input ligand: tryptophan 2.4 mM

In order of rising “apparent KD of MS2 coat protein” value:
1. AUACCUAAUGAGUCGUGUAACUUUUCAGAUACCAGACUUUUCGUUGUCCCUUGGCAGCUGUUUUACAUGAGGAUCACCCAUGUUG [JR_ExcTheophyA_Sub008]  14.9 nM
2. GGAUAUGGUGAAAGAGAGAAGAGAGAUGAUACCAGUAAGAGAAGAUGCCCUUGGCAGCAUAGAGACAUGAGGAUCACCCAUGUAA [solution]  15.6 nM
3. AGAUUACAUGUUUUAAUACGGAAAACUGAUACCAGUGUAUCUAUUCACCCUUGGCAGCAGCAACAUGAGGAUCACCCAUGUAUUA [JR_SSTheophyA_Sub016]  20 nM
4. ACCUGUACGAAAAGUGCAGGACACGGAAUACGAGGACCGGUACGGCCGCCACUCGGAAAACCUGAGGAUCACCCUGGUAACCGUG [TrypAS 11 #AlternativeMS2 #Zipper #StaticStem]  22.1 nM
5. AUGUCGUUGAAUACAGCGGCAUGGAGUGAUACCAGAAUGAUCAAAUUCCCUUGGCAGCAUCACAUGAGGAUCACCCAUGUUCGAU [SSTheo A #16]  40.9 nM
6. GGGCCCGGGCGCGAGCCCGGGCCCAUUGAUACCAGUGAUAUAUAGCGCCCUUGGCAGCGAAUCCUAACAUGAGGAUCACCCAUGU [5.I]  42.7 nM
7. UUGUAUAUGCGAAGGAGCGGGAAAUAUAUAUAUAUAAUCCUAACAUGAGGAUCACCCAUGUCCCAGGUAGGUCGCGCAUAUAUGG [12.F]  78.3 nM
8. UAAACAUGAGGAUCACCCAUGUUGGAUGAAGGAGCGACCAGAGGGUCAGGUAGGUCGCAUCACAUGAGGAUCACCCAUGUCAUUU [DOUBLE!!! :-D #12]  97.7 nM
9. CUUGUUUAUGGAAGGAGCGCGAUUACAUAACAUGAGGAUCACCCAUGUAAGAAAUUAUUCAUGCAGGUAGGUCGCCAUGGGUGGG [Same State Arginine B GF7]  120 nM
10. ACUCGAGGUGGAAGGAGCGGGAGACAUGAGCAUCACAUGAGGAUCACCCAUGUAGGAUCAUCCCAGGUAGGUCGCCAUGUCGAAA [avtamullin]  165 nM
